Test results taken from the DeepSol protein solubility set.

assay: soluble on expression in E. coli; label from the status in PepcDB or PDB records

Row | Sequence | soluble on expression in E. coli
1 | MNEQIPHDKSLDNSLTLLKEGYLFIKNRTERYNSDLFQARLLGKNFICMTGAEAAKVFYDTDRFQRQNALPKRVQKSLFGVNAIQGMDGSAHIHRKMLFLSLMTPPHQKRLAELMTEEWKAAVTRWEKADEVVLFEEAKEILCRVACYWAGVPLKETEVKERADDFIDMVDAFGAVGPRHWKGRRARPRAEEWIEVMIEDARAGLLKTTSGTALHEMAFHTQEDGSQLDSRMAAIELINVLRPIVAISYFLVFSALALHEHPKYKEWLRSGNSREREMFVQEVRRYYPFGPFLGALVKKDFVWNNCEFKKGTSVLLDLYGTNHDPRLWDHPDEFRPERFAEREENLFDMIPQGGGHAEKGHRCPGEGITIEVMKASLDFLVHQIEYDVPEQSLHYSLARMPSLPESGFVMSGIRRKS | soluble
2 | MSLDNAMRNIFNGMMTTTSPASFETATRTGVVGGSFSYRTTNVNTNLVSMSFPKASVGCNGIDVFLGSFSMINGDQLVQVARGIAQGAAIYAFNVAVSAICADCAATINDIQNKLQALNKFAKDSCNATYSFLTENVGPPSQFANAVSSGPASMLGTLNGLLPDFGSSMTKSPETVTSQVKAKDPEEFAEKFSGNLFYMSFMDIDKGSMNIGGVTELSGYRLAEQLMSLVGTVIINWDAKGEKAGMEVRPSTMTVSDFIMGPPAGGSIKMLKCSPAPDPASARKSQCLVMSEVTDGGFKGLKDTISDLLIQVQTKAISDVRISDDELRIISYIGIPTILDSLQTFDVPEGYAYIQDISAIAATSLVINMLRQVEAKISAMNIPSESLSGRRQDLTRLSENLTNQVKAAYELTRSQVGNSSDVISAWDDRRLKRKAFMESLRGTGNEGHHHHHH | not soluble
3 | MALAMNRSITAITVTHNSAHTVRGALARLPPGVEIVCVDNASTDDLSTALSDLAVHRIDNPVNLGFGRACNIGAAAATGEYLLFINPDVRLGTDAVDALLQAAERYPNCGVFVPRTNTVDGRLWFREESEIDRLSGVSLPTRIRQVWGDCCVRFVNGGVFMIKRTLFLDTGGFDEDIFLYFEDDDLSYRLLQRDEPMILVSGAHAVHDIGTSVAQSTRSRIFRYRSKMRSEIHLRKKYGIAYSPFVDILRYSTKIGFYCLTLNRNRLINSLGRLIGIFDSILDRSRANRNGGYVALEHHHHHH | not soluble
4 | GPGSMLRCNISQRVPTHPVVSVKSGLVFERSLVEKYVDEHGRCPVTGDPLRKEDLITAQGAAPDASIASSGSLGAASVPTLLERLQVEWEGVALEQFSLRQQVTQLQLELAHALQQYDAACRVIARLSKELDSLRGGKAVAAEETDKGPAVVVVPAPVLRRMDAAEAAERQARKQRKAAAGSTAATPSQLTEEAQWVATPSSSASASSARSAVRVAAAADASSSGVFVSAVTGDHAIVRYSPDGFSEEARGIGHTATVHTLASQPGDILLSAAEDLTVRVWSTKGAALTVMHTLRYASGVVAMSQRTVGGAYMLCGAGDGVLTLSDLESGAHVVATAPLTLDTTSGALTCVELHPYASLAAVAFQPTELQLWDAREMRADTFISHVRGTAPRTHICSASFSADCVSLAAGLTDGSVYVWDLRQVLAPVAVLPPSADAVPATVRYAPDGRSLVVGGHGVTLYDCARLSASSTAVEAVATAGLKASAVCDVCWTTSGTDVLCGSVDGVVRLYSTAAGAT | soluble
5 | MINKLDNLNEEVANQIFTVFQNSYKIEAQLIGTLNFPPLLRSAKDIENSKTLFYGFSENECLAAVIEIVLENKQLDINSLTVDPNYFRKGIANKLITYILDKFYFSEAIVETAVVNTPAINLYKKHGFVEFKRWIPSHGIEKLAMSVKATL | not soluble
6 | MSLESIKVGMIGYKFMGKAHSHAYRDLPMFFPDHLRPEMKVICGRNPEGVAQAASQYGWEEYTTNWKDLIRRDDIDLIDINAPSDVHKEITLAAAQAGKHIFCEKPLALTLQDSRHMLEAVEAAGVKHMVGFNYRFTPAVLLAKKLIAEGRLGDIYHFRAWFLQDWIVAPDFPLVWRLQKDIAGSGAHGDLGAHLIDMAHFLIGDITEVIGMNETFIKERPLPTEMTGLSGRGSNDHTVPKGPVTVDDATLFMARFANGALGSFEATRFATGHRSTNSFEINGSKGSVIFDFERLNELQVYFTDDQDDVQGFRRVLATDGAHAYSDRWWPAGHTIGYEHTFIHEIAELMESLQEGRQPVPNFKDGVKCQQVLEAVDLSIAKREWIQVSEGHHHHHH | soluble
7 | MLKLLIVDDAMFMRTMIKNIVKDSDFEVVAEAENGLEAVKKYDEVKPDIVTLDITMPEMDGLEALAQIMAKDPSAKVIMCSAMGQQGMVVDAIKKGAKDFIVKPFQADRVLEALEKAAK | not soluble
